According to the supplement of paper PMC10724198:
± gives the standard deviation of the averaged measurements.
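Note: PSI is a weighted mean of sequencing reads over stability bins, variants kept only with over 10 reads, mCherry proximal and sfGFP distal, peptide attached via GGGS linker.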

The sequences below were run on Saccharomyces cerevisiae (assay: protein stability index of tFT-peptide fusion (C-terminal peptide) (PSI (0-1 scale)); higher = more stable (slower turnover)). Conditions: genetic background: wild type; temperature: 30 C.
PPSLGPHSTSCD was tested, and the protein stability index was 0.715 ± 0.071. With PPSLPPLPPSPA the protein stability index was 0.656 ± 0.085. PPSLTPAALPAA gave a protein stability index of 0.745 ± 0.072. With PPSPASASPDRR the protein stability index was 0.695 ± 0.022. PPSPELALSLGH was tested, and the protein stability index was 0.673 ± 0.038. For PPSPHPSLPPPR, the protein stability index was 0.668 ± 0.024. Work on PPSPLQGRICFV yielded a protein stability index of 0.698 ± 0.032. PPSPLSTLPSPH showed a protein stability index of 0.679 ± 0.045. PPSPPPAFPPPA gave a protein stability index of 0.64 ± 0.059. PPSPPPPPAAST showed a protein stability index of 0.768 ± 0.13. In the case of PPSPPSLRSSPP, the protein stability index is reported as 0.744 ± 0.13. PPSPPVPRFSLL showed a protein stability index of 0.69503 ± 0.00011. For PPSPPVRPPLLA, the protein stability index was 0.617 ± 0.14. PPSPSPPPYHFP showed a protein stability index of 0.676 ± 0.023. PPSPSSLPPPPL showed a protein stability index of 0.733 ± 0.0075. Work on PPSPTPPLPSCP yielded a protein stability index of 0.702 ± 0.029. PPSRDRSGCISV showed a protein stability index of 0.709 ± 0.021. PPSRDSHPPPPP gave a protein stability index of 0.627 ± 0.02. PPSRLLFPSPPA gave a protein stability index of 0.683 ± 0.055. Work on PPSRLSPPPPPS yielded a protein stability index of 0.71 ± 0.016. For PPSRPLPALPFP, the protein stability index was 0.676 ± 0.097. Work on PPSRPLPSPLPP yielded a protein stability index of 0.631 ± 0.03. Sequence PPSRPPAPSPRS has a protein stability index of 0.695 ± 0.037. Work on PPSRPPPARREP yielded a protein stability index of 0.7 ± 0.022. PPSRPSASFALL was tested, and the protein stability index was 0.743 ± 0.026. With PPSSYGCGRQMP the protein stability index was 0.645 ± 0.038. PPTAPCPPPLPP was tested, and the protein stability index was 0.645 ± 0.012. For PPTFFQRSPLRP, the protein stability index was 0.681 ± 0.033. Sequence PPTFLPLPSSPP has a protein stability index of 0.651 ± 0.079. Sequence PPTHPPLPPPLL has a protein stability index of 0.689 ± 0.07. For PPTPPPNPPSRY, the protein stability index was 0.715 ± 0.021. Sequence PPTPPPPRSTPS has a protein stability index of 0.766 ± 0.035. For PPTPPPVPPPWS, the protein stability index was 0.669 ± 0.044. Sequence PPTPPTARPIVL has a protein stability index of 0.677 ± 0.018. In the case of PPTRLPQGVSWR, the protein stability index is reported as 0.702 ± 0.066. For PPVLSLGPPFTS, the protein stability index was 0.73 ± 0.11. PPYFFPSDPRPD was tested, and the protein stability index was 0.748 ± 0.067. PQIVRSFLLFPP gave a protein stability index of 0.69 ± 0.0076. PQPPTPLTPTPP gave a protein stability index of 0.697 ± 0.089. With PQSIHASIYFRL the protein stability index was 0.634 ± 0.02. With PQTYHRPPPPLH the protein stability index was 0.702 ± 0.028. PQYLALLRTSIP gave a protein stability index of 0.739 ± 0.043. With PRALCPPPSPST the protein stability index was 0.697 ± 0.043. In the case of PRAPRVSTRRPE, the protein stability index is reported as 0.793 ± 0.083. In the case of PRASPPPLPPSP, the protein stability index is reported as 0.717 ± 0.032. With PRCSVYPITGPY the protein stability index was 0.682 ± 0.046. For PRFLGWGGCLWV, the protein stability index was 0.7265 ± 0.0045. PRGGLGTGWGRR was tested, and the protein stability index was 0.731 ± 0.079. Sequence PRGILLATPEGH has a protein stability index of 0.684 ± 0.021. For PRHCYIPLPLLP, the protein stability index was 0.661 ± 0.021. For PRHISIHPNATP, the protein stability index was 0.705 ± 0.045. With PRLLPFPPPLDH the protein stability index was 0.735 ± 0.083. PRLPGPAAIARR was tested, and the protein stability index was 0.6714 ± 0.004. For PRLQLHSDPNCS, the protein stability index was 0.733 ± 0.087. Work on PRLSPPSSPGPP yielded a protein stability index of 0.631 ± 0.03. PRLVHGFPRFHP showed a protein stability index of 0.669 ± 0.033. PRPFPLSCSPPV showed a protein stability index of 0.751 ± 0.083. Work on PRPHRLPPRPFH yielded a protein stability index of 0.6917 ± 0.0064. PRPPAPPDPAPP was tested, and the protein stability index was 0.746 ± 0.072. PRPPLRPPPISP gave a protein stability index of 0.68 ± 0.066. PRPPPLPPQTSS showed a protein stability index of 0.73 ± 0.1. Work on PRPPPSPPPILP yielded a protein stability index of 0.676 ± 0.0072. With PRPPPSPTPPLT the protein stability index was 0.69 ± 0.095. PRPPRPPRPPLP was tested, and the protein stability index was 0.66 ± 0.016. PRPPTPPTTILN showed a protein stability index of 0.652 ± 0.032. PRPPYHAPSTFP was tested, and the protein stability index was 0.575 ± 0.074. PRPRQPPPPPPP was tested, and the protein stability index was 0.689 ± 0.0076. Sequence PRPRSPSPPLPP has a protein stability index of 0.705 ± 0.01. PRPRTPPPLLSF gave a protein stability index of 0.687 ± 0.057. For PRPSRILPLPAP, the protein stability index was 0.65 ± 0.0072. For PRRLFFFFFLSG, the protein stability index was 0.656 ± 0.017. With PRRPLPTISCPS the protein stability index was 0.618 ± 0.005. With PRRSPPCSTPPP the protein stability index was 0.726 ± 0.077. Sequence PRRVGRLGAPMG has a protein stability index of 0.719 ± 0.11. Sequence PRSAAQSQMRRK has a protein stability index of 0.711 ± 0.056. With PRSCPPFLPSLP the protein stability index was 0.727 ± 0.0099. Sequence PRSRPTCYSRPG has a protein stability index of 0.702 ± 0.04. PRSSSRAGRTGT was tested, and the protein stability index was 0.712 ± 0.031. Work on PRSSTSFLPSFL yielded a protein stability index of 0.678 ± 0.064. PRSVPLCALLSL was tested, and the protein stability index was 0.654 ± 0.024. PRVPLPPPHPLH gave a protein stability index of 0.728 ± 0.073. In the case of PRVTPRFSKHAL, the protein stability index is reported as 0.724 ± 0.016. In the case of PSALPLFWSELF, the protein stability index is reported as 0.661 ± 0.022. For PSALSSSAPSSP, the protein stability index was 0.667 ± 0.043. In the case of PSCFNAPRHPPT, the protein stability index is reported as 0.749 ± 0.076. For PSCRPPLLHPDS, the protein stability index was 0.721 ± 0.0094. Work on PSFLTGRPISPV yielded a protein stability index of 0.677 ± 0.018. With PSGRPPGHDNLV the protein stability index was 0.666 ± 0.045. For PSHAAPVPAPQP, the protein stability index was 0.628 ± 0.079. PSHTPNHTGYPD gave a protein stability index of 0.681 ± 0.02. Work on PSILPPPSSCPP yielded a protein stability index of 0.767 ± 0.041. PSIMLSSLPPPP showed a protein stability index of 0.696 ± 0.065. For PSKGKYKKMGPR, the protein stability index was 0.661 ± 0.076. With PSLLPLLPLPPP the protein stability index was 0.685 ± 0.038. In the case of PSLLPSRPPRSI, the protein stability index is reported as 0.648 ± 0.034. With PSLPCPVLVFSL the protein stability index was 0.462 ± 0.054. With PSLPPLPPAPLL the protein stability index was 0.726 ± 0.039. With PSLSSPQLLLTL the protein stability index was 0.685 ± 0.01. Work on PSNDNTMIPILE yielded a protein stability index of 0.656 ± 0.04. PSPALLILPPYS gave a protein stability index of 0.672 ± 0.016. With PSPFDTPPSSGQ the protein stability index was 0.722 ± 0.026. Work on PSPFPLPLSFAR yielded a protein stability index of 0.538 ± 0.047. PSPHTPPHTFLL gave a protein stability index of 0.755 ± 0.0022. Work on PSPLAPPLPPPS yielded a protein stability index of 0.701 ± 0.015. Work on PSPLLSPPPPRP yielded a protein stability index of 0.706 ± 0.024. In the case of PSPLPSSGHPPP, the protein stability index is reported as 0.6206 ± 0.0046. PSPLSLIPSSRP gave a protein stability index of 0.663 ± 0.095. PSPMHPSAHFST showed a protein stability index of 0.67613 ± 0.00039. Sequence PSPPAPFPLVPT has a protein stability index of 0.607 ± 0.032. PSPPAPLSLLLP was tested, and the protein stability index was 0.645 ± 0.074. Work on PSPPAQSASLFF yielded a protein stability index of 0.663 ± 0.02. For PSPPLPPPPSPY, the protein stability index was 0.72 ± 0.1. For PSPPPAVLPPPP, the protein stability index was 0.693 ± 0.039. PSPPPLLAPSPL was tested, and the protein stability index was 0.683 ± 0.096. PSPPPLLTRPLP was tested, and the protein stability index was 0.713 ± 0.1. In the case of PSPPPPHPSALT, the protein stability index is reported as 0.648 ± 0.012. Work on PSPPPPPPHPAP yielded a protein stability index of 0.694 ± 0.035. With PSPPPPPRTFPN the protein stability index was 0.6756 ± 0.0064. For PSPPPSPPPRHF, the protein stability index was 0.6924 ± 0.0046. PSPPPTPPPPTP gave a protein stability index of 0.793 ± 0.096. For PSPPTPLPSRLF, the protein stability index was 0.7829 ± 0.0037. Work on PSPRPPPPPPSA yielded a protein stability index of 0.705 ± 0.009. PSPSGRGLAIAP was tested, and the protein stability index was 0.688 ± 0.013. Work on PSPSPPPPLSPP yielded a protein stability index of 0.698 ± 0.045. With PSPSTAPPRDQG the protein stability index was 0.724 ± 0.016. Sequence PSPSTSLPPSPP has a protein stability index of 0.684 ± 0.042. PSPSYAPARHQA gave a protein stability index of 0.651 ± 0.063. PSPTIPSPPPPP was tested, and the protein stability index was 0.615 ± 0.011. PSPTLGPVSFPH was tested, and the protein stability index was 0.703 ± 0.014. Work on PSPYFHLFGTQS yielded a protein stability index of 0.77 ± 0.027. In the case of PSQHVHTSPLYS, the protein stability index is reported as 0.695 ± 0.022. For PSQPYPSSQYIL, the protein stability index was 0.73 ± 0.047. For PSQRHQRPHREP, the protein stability index was 0.657 ± 0.052. For PSRASGPYPRLS, the protein stability index was 0.701 ± 0.019. For PSRDPPAGPRAR, the protein stability index was 0.684 ± 0.048. Work on PSRLSLLWVNPP yielded a protein stability index of 0.8 ± 0.081. For PSRPRPRRRRQA, the protein stability index was 0.751 ± 0.073. Sequence PSRRAPQSRPSQ has a protein stability index of 0.733 ± 0.098. PSRRHGFRLILT was tested, and the protein stability index was 0.679 ± 0.019. PSRRPLPHPPPP was tested, and the protein stability index was 0.654 ± 0.045. PSRVPTPLPHFT showed a protein stability index of 0.737 ± 0.049. PSSCLPAHLRPP showed a protein stability index of 0.605 ± 0.013. With PSSCSLLPLCLG the protein stability index was 0.663 ± 0.065. With PSSHHGNQTTRK the protein stability index was 0.826 ± 0.14. PSSLPSTPPSPP gave a protein stability index of 0.745 ± 0.019. In the case of PSSPLPLSVPPL, the protein stability index is reported as 0.655 ± 0.11. With PSSPPAPLAPHS the protein stability index was 0.731 ± 0.067. For PSSPPLPLPALP, the protein stability index was 0.723 ± 0.04. With PSSRFLFFCSFF the protein stability index was 0.677 ± 0.033. Work on PSSSLAPPPGRL yielded a protein stability index of 0.572 ± 0.038. For PSTDARRQRLRR, the protein stability index was 0.721 ± 0.049. For PSTLLPSLRFPP, the protein stability index was 0.654 ± 0.056. Sequence PSTPPGPPPASH has a protein stability index of 0.758 ± 0.011. For PSTPSPSCAPPS, the protein stability index was 0.7087 ± 0.0017. PSTSCQRLLTLT showed a protein stability index of 0.639 ± 0.018. In the case of PSTVSPFRPPIT, the protein stability index is reported as 0.711 ± 0.039. PSVLPPPSPASY gave a protein stability index of 0.668 ± 0.094. PTFVQGVVLGRG showed a protein stability index of 0.702 ± 0.086. PTLPACFCPPAP was tested, and the protein stability index was 0.639 ± 0.097. In the case of PTLSSPHPPNNY, the protein stability index is reported as 0.689 ± 0.021.
